Data taken from article PMC11286772, “Structural basis of antagonist selectivity in endothelin receptors” (Cell Discovery, 2024).

Biological target: T1, ETA, wild type, as used in the size exclusion chromatography analysis with Fab301 (Homo sapiens, UniProt P25101)
T1 construct: endothelin receptor type A (ETA), human; Probably one of the insect cell constructs m1 or m3; also called WT; WT ETA
Assay: SEC; retention time of each ETA ECL2 alanine mutant–Fab301 complex against the WT–Fab301 complex

T1 sequence (P25101 21-427): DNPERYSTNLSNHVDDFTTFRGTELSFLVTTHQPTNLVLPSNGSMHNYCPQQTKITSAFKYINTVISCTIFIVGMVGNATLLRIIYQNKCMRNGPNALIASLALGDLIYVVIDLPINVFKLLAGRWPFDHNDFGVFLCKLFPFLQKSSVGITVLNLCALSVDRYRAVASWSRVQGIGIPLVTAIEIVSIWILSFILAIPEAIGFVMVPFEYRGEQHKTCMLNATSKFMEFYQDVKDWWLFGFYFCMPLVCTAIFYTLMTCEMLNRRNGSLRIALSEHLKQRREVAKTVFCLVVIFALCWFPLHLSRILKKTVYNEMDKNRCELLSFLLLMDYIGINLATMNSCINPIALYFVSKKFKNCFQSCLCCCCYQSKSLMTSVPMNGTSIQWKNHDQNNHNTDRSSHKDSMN

B1: Fab301, Fab fragment of the anti-ETA monoclonal antibody Getagozumab (Fab, V domains shown)
VH: QVTLKESGPTLVKPTQTLTLTCTFSGFSLTTSGLGVAWIRQPPGKALEWLAHIWSDGDTRYYPALKNRLTITKDTSKNQVVLTMTNMDPVDTATYYCAHMKDDSLYFDNWGQGTLVTVSS
VL: EIVLTQSPDFQSVTPKEKVTITCRASQNIGTSIHWYQQKPDQYPKLLIKYASKSISGVPSRFSGSGSGTDFTLTINSLEAEDAATYYCQHSYSFPWTFGQGTKVEIK
notes: Purified on Ni-NTA, so one chain probably carries a His tag; In the ambrisentan and zibotentan maps the dynamic regions of Fab301 were masked out; also called ETA-specific antibody; Getagozumab Fab; source: Hi5 insect cells, baculovirus (pFastBac Dual), from the culture supernatant, purified (Ni-NTA, Superdex 200)
B1: binds.
